Tests used:
[1] = molecular target: Dylight488-labeled GluA2 amino terminal domain; experiment: AUC; FDS-SV, titration series: constant low concentration of labeled protein (1 nM for FAM-GluA2 ATD) with unlabeled GluA2 ATD at a range of concentrations (Figure S1); 20°C, pH 7.5, 0.1 mg/mL BSA; sw isotherm, monomer-dimer model; dimer to monomers
[2] = molecular target: EGFP-GluA2 ATD fusion protein; experiment: as above
[3] = molecular target: FAM (5,6-carboxyfluorescein)-labeled GluA2 amino terminal domain; experiment: as above
[4] = molecular target: FAM (5,6-carboxyfluorescein)-labeled GluA2 amino terminal domain; experiment: AUC; FDS-SV, dilution series of FAM-GluA2 ATD at labeling ratio 1.05 (Figure 4C/D); 20°C, pH 7.5, 0.1 mg/mL BSA; monomer-dimer model; dimer to monomers
[5] = molecular target: FAM (5,6-carboxyfluorescein)-labeled GluA2 amino terminal domain; experiment: AUC; FDS-SV, dilution series of FAM-GluA2 ATD at labeling ratio 2.26 (Figure 4E/F); 20°C, pH 7.5, 0.1 mg/mL BSA; monomer-dimer model; dimer to monomers
[6] = molecular target: FAM (5,6-carboxyfluorescein)-labeled GluA2 amino terminal domain; experiment: AUC; FDS-SV, dilution series of FAM-GluA2 ATD at labeling ratio 0.68 (Figure 4A/B), down to very low concentrations; 20°C, pH 7.5, 0.1 mg/mL BSA; monomer-dimer model; dimer to monomers
[7] = molecular target: FAM (5,6-carboxyfluorescein)-labeled GluA2 amino terminal domain; experiment: AUC; FDS-SV, dilution series of FAM-GluA2 ATD at labeling ratio 1.32, single-component fit excluding the two lowest concentrations and freely adjusting the s-values (Figure 5A, thin blue line); dimer to monomers
[8] = molecular target: FAM (5,6-carboxyfluorescein)-labeled GluA2 amino terminal domain; experiment: AUC; fluorescence-detected sedimentation velocity (FDS-SV), dilution series of labeled protein (Figure 3); 50,000 rpm, 20°C; 20 mM Na phosphate pH 7.5, 150 mM NaCl, 1 mM EDTA, 0.1 mg/mL BSA carrier; sw isotherm fitted with a monomer-dimer model; dimer to monomers
[9] = molecular target: Alexa Fluor 568-labeled GluA2 amino terminal domain; experiment: FRET or BRET; kinetic FRET in a spectrofluorometer, 20°C, excitation 495 nm, emission 603 nm; 50 nM donor-labeled and 50 nM AF568-labeled GluA2 ATD pre-equilibrated (30 min DL488, 60 min FAM), then 1 µM unlabeled GluA2 ATD added; decay fitted with exponential functions
[10] = molecular target: FAM (5,6-carboxyfluorescein)-labeled GluA2 amino terminal domain; experiment: AUC; FDS-SV, dilution series of FAM-GluA2 ATD at labeling ratio 1.32 extended to lower concentrations (Figure 5); all fits with s-values constrained to those of Dylight488-GluA2 ATD: single-component fit, and three-component fit with populations of different affinity; dimer to monomers
[11] = molecular target: Dylight488-labeled GluA2 amino terminal domain; experiment: AUC; FDS-SV, dilution series of Dylight488-GluA2 ATD, two different runs, global best-fit single component, single class of sites model (Figure 5A); dimer to monomers
[12] = molecular target: Dylight488-labeled GluA2 amino terminal domain; experiment: AUC; fluorescence-detected sedimentation velocity (FDS-SV), dilution series of labeled protein (Figure 3); 50,000 rpm, 20°C; 20 mM Na phosphate pH 7.5, 150 mM NaCl, 1 mM EDTA, 0.1 mg/mL BSA carrier; sw isotherm fitted with a monomer-dimer model; dimer to monomers
[13] = molecular target: GluA2 ATD ATD (Rattus norvegicus) (UniProt P19491); experiment: sedimentation velocity AUC (far-UV absorbance); conditions: cited from earlier work

Chain of EGFP-GluA2 ATD fusion protein (P23819 25-404): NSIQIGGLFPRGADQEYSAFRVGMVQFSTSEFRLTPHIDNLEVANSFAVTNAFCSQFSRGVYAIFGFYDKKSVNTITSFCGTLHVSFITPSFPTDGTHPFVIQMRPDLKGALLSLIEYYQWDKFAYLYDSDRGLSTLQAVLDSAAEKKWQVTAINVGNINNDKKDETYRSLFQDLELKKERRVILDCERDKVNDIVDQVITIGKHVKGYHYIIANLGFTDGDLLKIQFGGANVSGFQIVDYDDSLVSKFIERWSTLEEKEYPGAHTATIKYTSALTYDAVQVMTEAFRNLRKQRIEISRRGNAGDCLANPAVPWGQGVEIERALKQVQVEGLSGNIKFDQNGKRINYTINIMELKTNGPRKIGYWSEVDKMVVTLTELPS
Chain of GluA2 ATD ATD (P19491 22-400): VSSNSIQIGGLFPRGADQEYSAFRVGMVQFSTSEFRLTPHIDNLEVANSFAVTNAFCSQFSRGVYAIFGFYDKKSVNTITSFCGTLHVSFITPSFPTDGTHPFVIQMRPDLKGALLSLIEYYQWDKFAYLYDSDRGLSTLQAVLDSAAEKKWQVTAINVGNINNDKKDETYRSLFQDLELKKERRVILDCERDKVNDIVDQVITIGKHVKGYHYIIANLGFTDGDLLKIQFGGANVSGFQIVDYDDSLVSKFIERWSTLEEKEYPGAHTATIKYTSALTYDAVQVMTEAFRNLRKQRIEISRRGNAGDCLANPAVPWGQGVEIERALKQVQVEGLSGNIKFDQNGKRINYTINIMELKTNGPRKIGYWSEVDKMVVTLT

“GluA2 amino terminal domain (GluA2 ATD), unlabeled (domain or fragment)” showed a Kd [1] of 16.5 nM, a Kd [2] of 22 nM and a Kd [3] of 9 nM.

“FAM (5,6-carboxyfluorescein)-labeled GluA2 amino terminal domain (domain or fragment)” showed a Kd [4] of 2.6 nM, a Kd [5] of 4.7 nM and a Kd [6] of 3.1 nM. It also gave a Kd [7] of 4.6 nM, a Kd [8] of 2.3 nM and a stoichiometry N [8] of 2. For the same substance, the life-time of the donor/acceptor heterodimer, fast component [9] was 95 s, the life-time of the donor/acceptor heterodimer, slow component [9] was 723 s and the time constant of the decay, fast component (double exponential fit, trace shown) [9] was 98 s. The time constant of the decay, slow component (double exponential fit, trace shown) [9] was 640 s, the KD of the high-affinity population (three-component fit) [10] was 1.8 nM and the KD of the low-affinity population (three-component fit) [10] was 24000 nM. For the same substance, the Kd [10] was 6.3 nM.

In the case of “Dylight488-labeled GluA2 amino terminal domain (domain or fragment)”, the Kd [11] is reported as 19.4 nM, the Kd [12] is reported as 20.5 nM and the stoichiometry N [12] is reported as 2. The half life of the donor/acceptor heterodimer (single-exponential decay) [9] was 2.72 min and the time constant of the decay (single exponential fit, trace shown) [9] was 169 s.

For GluA2 ATD ATD (from UniProt P19491), the Kd [13] is given as 9.4 nM.

— article PMC3866193
